The supplement of paper PMC9170038

Test system: MS2 coat protein
Assay: apparent KD of MS2 coat protein; designed switch direction (-1 OFF switch, 1 ON switch): -1; higher = weaker reporter binding
Method in brief: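 Apparent KD, taken as the median over clusters for each design, was obtained by curve-fitting normalised cluster fluorescence. Designed RNA switches had been transcribed on Illumina chips by stalled E. coli RNA polymerase and titrated with SNAP-549-labelled MS2 coat protein, doubling from 0.7 or 1.5 nM to 3 µM.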

[1] = Eterna round: R95, input ligand: FMN 200 uM
[2] = Eterna round: R95, input ligand: microRNA oligo, concentration not stated
[3] = Eterna round: R95, input ligand: none

Row | Sequence | apparent KD of MS2 coat protein [1] | apparent KD of MS2 coat protein [2] | apparent KD of MS2 coat protein [3] | apparent KD of MS2 coat protein (input ligand: FMN 200 uM) | apparent KD of MS2 coat protein (input ligand: none) | apparent KD of MS2 coat protein (input ligand: microRNA oligo, concentration not stated)
1 | UCAUGUUUAGAGGAUAUGAUUACUCUAGAGUGAUCAGAAGGCUAGACAUGAGGAUCACCCAUGUCACAACAUGA [Exclusion 6 - B - 16:c] (puzzle: Exclusion 6) | 73.6 nM | 44.5 nM | 128 nM | – | – | –
2 | CCAUGUAGAGGAUAUCUUAAGCUAGACAUGAGGAUCACCCAUGUGACUAUUCCUAUGAGCGGAGAAGGCUGAACCA [Eternabot (L2) Solution 64] (Eterna round: R97, puzzle: Exclusion 5) | – | – | – | 29.7 nM | 29.6 nM | –
3 | CAGUACUGAGGAUAUACAUGAGGAUCACCCAUGUGAAAUGCAUAGGAAACUAUGCUAUGUAGAAGGCAGUACUG [Eli x3 4.03] (Eterna round: R97, puzzle: Exclusion 3) | – | – | – | 108 nM | 18.5 nM | –
4 | GCCAUGUCAGGAUAUGCUUCAAAGCACGUACAGAGCUUGAAGUAGAAGGGACAUGAGGAUCACCCAUGUGCCUA [Eternabot (L1) Solution 80] (Eterna round: R97, puzzle: Exclusion 4) | – | – | – | 40.2 nM | 20 nM | –
5 | AACCAUGAGCGAGGAUAUCACCCUACGGAGUGGUGAGAAGGCGCAACAUGAGGAUCACCCAUGUACAAAUGCGGGACCCUUUUC [Zaorredila] (Eterna round: R96, puzzle: Exclusion NG 1) | – | – | – | – | – | 21.6 nM
6 | CCUCCCUGAGGAUAUCCACCCUCAUACAUGAGGAUCACCCAUGUUCAUCCGUGGGUACCCGGAGAAGGCAGCUCUC [Megrez-c] (Eterna round: R97, puzzle: Exclusion 5) | – | – | – | 80.8 nM | 86.7 nM | –
7 | CUGAGCAGACGGAGAUCCAACAUGAGGAUCACCCAUGUCUCAGAAGCUUUUUGCUCGUCUUAUCCUCCUCUGUUCAC [Elimod 21 - Jieux - Sensor, turn-off variant 1] (Eterna round: R97, puzzle: Sensor, turn-off variant 1) | – | – | – | 103 nM | 119 nM | –
8 | UCAAGCUUUAAGCGUGUGAACAUGAGGAUCACCCAUGUAUUUUAGGUAAUAAGUUCAAUUAUGUAUUCUCGUCUUAU [JR_SWV3TOV1_Sub095] (puzzle: Sensor v3, turn-off variant 1) | 42.4 nM | 37.4 nM | 45.6 nM | – | – | –
9 | GCACUGGCAGGAUAUACAUGAGGAUCACCCAUGUGAUCCCUUAGGUACAAAAGUACUAGUAGAAGGGCCUGUGC [Omei Ex3 Model Bachelor's Dilema v48] (Eterna round: R97, puzzle: Exclusion 3) | – | – | – | 294 nM | 968 nM | –
10 | AUCAUGAUAGGAUAUACAUGAGGAUCACCCAUGUCCCACCCGUUACUUCUGGCCCUUUGUAGAAGGAUCGUCAA [Exy#21] (Eterna round: R97, puzzle: Exclusion 3) | – | – | – | 22.2 nM | 26.8 nM | –
11 | CCCUCACAUGAGGAUCACCCAUGUCAGGAUAUUCAAAGCGCAAAUGCGCCAAAUGCAGGAAGAAGGGACGUGCC [Bisoar] (puzzle: Exclusion 1) | – | 13.3 nM | – | – | – | –
12 | CUGGUCCGAGGAUAUAUUAAGUGAUACAUGAGGAUCACCCAUGUAAUUUAAUGGAAAUAAAUAGAAGGCGGACUAG [Mat - Exclusion 5 - JL mod - D51] (puzzle: Exclusion 5) | 30 nM | 65.3 nM | 62.5 nM | – | – | –
13 | CUGAGCAGACGGAGAUCCAACAUGAGGAUCACCCAUGUCUCAAAAGCUUUUUGCUCAUCUUAUCGUACCUUGGUGCU [JL ViennaUCT Edcesobi mod 1] (puzzle: Sensor v3, turn-off variant 1) | 406 nM | 20.2 nM | 445 nM | – | – | –
14 | UAGCAGCGAGGAUAUACAGACGGGUCCAGUACGUGUCUUGGACUUGAGGAUCACCCAAGUAGAAGGCGCCACAG [salish99_ex2_r4_604] (Eterna round: R97, puzzle: Exclusion 2) | – | – | – | 41.3 nM | 40 nM | –
15 | UAUCCGACAGGAUAUACAUGAGGAUCACCCAUGUACCCACUGUAUGUAACCUCAAACUGUAGAAGGGUUGAUAU [Eternabot (L1) Solution 18] (Eterna round: R97, puzzle: Exclusion 3) | – | – | – | 21.2 nM | 28.6 nM | –
16 | GGCGAGGGAGGAUAUACGUGAUUGAUGCCGGGAACCCAGAGACAUGAGGAUCACCCAUGUAGAAGGCCCGGCUA [EX2 B.4] (Eterna round: R97, puzzle: Exclusion 2) | – | – | – | 10.9 nM | 14.5 nM | –
17 | CGUAGCAAAGUGAGGAUAUCUAGAGCCUCGGCUCUAGAGAAGGCACAUGAGGAUCACCCAUGUGGUCAGCUACG [BmEx4/8-A2] (Eterna round: R97, puzzle: Brourd's mod of Exclusion 4) | – | – | – | 1050 nM | 101 nM | –
